# Data taken from US8791061B2, “Peptides for treating and preventing immune-related disorders, including treating and preventing infection by modulating innate immunity” (Soligenix, Inc., priority 2005, dated 2014).
# “Also recorded” adds a separate entry of the source. Where no end group is shown, it is not given here. [ ]: non-standard residue; d: D form. Orn = NCCC[C@H](N)C(=O)O
# Tested on: S. aureus 25923
# Assay: In vivo protection, mice infected IP with S. aureus, peptide after infection
# Conditions: peptide IP 4 hours after infection, 9-24 mg/kg depending on peptide, 24 hours post-infection, vs control
# Procedure: Mice were infected with S. aureus 25923 via intraperitoneal (IP) injection. Four hours later, the peptide of SEQ ID NOs:1, 4, 5, 6, 45, and 47 were administered at 12 mg/kg and 24 mg/kg for SEQ. ID. NO. 1 (FIGS. 2A and 2B), 9.6 mg/kg for SEQ. ID. NO. 5 (FIG. 2C), 13 mg/kg for SEQ. ID. NO. 47 (FIG. 2D), 12 mg/kg for SEQ. ID. NO. 4 (FIG. 2E), 9 mg/kg for SEQ. ID. NO. 6 (FIG. 2F), and 13 mg/kg for SEQ. ID. NO. 45 (FIG. 2G), via IP injection. Twenty-four hours post-infection, surviving animals were sacrificed, and intraperitoneal lavage fluid was plated to determine residual bacterial counts (# colony forming units per ml (CFU/ml)) in the presence and absence of peptide treatment.
# Dead animals were assigned the highest bacterial count of any animal in the study.
row,Substance,protection (residual bacterial counts CFU/ml in intraperitoneal lavage fluid)
1,4 (SRIVP; IMMUNOLOGICAL PEPTIDE) [compound 4],clearly demonstrated protection
2,6 (KIVPA; IMMUNOLOGICAL PEPTIDE) [compound 6],clearly demonstrated protection
3,45 (KPARVPS; IMMUNOLOGICAL PEPTIDE) [compound 45],clearly demonstrated protection
4,47 (KPRAVP; IMMUNOLOGICAL PEPTIDE) [compound 47],clearly demonstrated protection

# Tested on: S. aureus 25923
# Assay: Non-antimicrobial activity, WST-1 colorimetric bacterial viability assay
# Format: cell-based
# Conditions: peptide 200 μM, 2 hours growth, compared with erythromycin 120 μg/ml
# Procedure: Bacteria (S. aureus 25923) were seeded into wells containing peptide (200 μM), vehicle (Tris), or antibiotic (erythromycin; 120 μg/ml). The bacteria were allowed to grow for 2 hours. Thereafter, bacterial viability was determined utilizing a WST-1 colorimetric viability assay (catalogue number 1 644 807; Roche Diagnostics). DMEM and DMEM+WST-1 were included as background controls.
row,Substance,antimicrobial activity (bacterial viability)
1,47 (KPRAVP; IMMUNOLOGICAL PEPTIDE) [compound 47],lack of activity; also recorded: lacked antimicrobial activity

# Biological target: T1, DPPIV (Mus musculus, UniProt P28843)
# T1 construct: The plasma was transferred to a 96-well assay plate for the DPPIV assay; from tissue; host or cells: pooled heparinized whole blood of ICR mice; plasma isolated after incubation
# Assay: Plasma DPPIV activity assay with mouse blood
# Format: biochemical
# Conditions: peptide 0.82 mM in mouse blood, 2 h at 37° C.; relative to saline control set to 100%
# Procedure: Mouse blood was obtained by cardiac puncture from ICR mice and collected in heparinized blood collection tubes. Blood from several mice was pooled and aliquoted into […]. The peptide was dissolved in acetate buffered saline, pH 5.5, to a concentration of 9 mM. Of this stock solution 30 μL were added to 300 μL of blood and mixed by resuspension (concentration in blood 0.82 mM). For the control, 30 μL of blank acetate buffered saline was added to 300 μL of blood. Each peptide group was prepared in triplicate, whereas the control was prepared in six replicates. The samples were incubated at 37° C. in closed microtubes for two hours. After incubation the plasma was isolated from the samples by centrifugation at 4000 rcf. The plasma was transferred to a 96-well assay plate for the DPPIV assay. The assay was started by adding 5 μL of the DPPIV substrate gly-pro-p-nitroanilide (16 mM in de-ionized water) to 95 μl of plasma (concentration in plasma 0.8 mM) and the increase in UV absorbance (405 nm) was monitored over a 20 min time period. The rate of the production of p-nitroaniline by enzymatic cleavage of gly-pro-p-nitroanilide was taken as the activity of DPPIV (Durinx C et al., (2001) “Reference values for plasma dipeptidyl-peptidase IV activity and their association with other laboratory parameters”. Clin Chem Lab Med. 39(2):155-9.)
# The effect of the peptides on the activity of DPPIV was observed. Results are presented as normalized, averaged % activity relative to saline control (set to 100%). Anything less than 100% activity represents a reduction in DPPIV activity.
# In one aspect of the invention, a reduction by of DPPIV activity by about, or in one embodiment, at least, 25% (i.e. to about 75%+/−5%) was deemed to be active. A person skilled in the art would appreciate that the desired level of activity may vary depending on the use of the peptides.
# T1 sequence (P28843 37-760 limits assumed): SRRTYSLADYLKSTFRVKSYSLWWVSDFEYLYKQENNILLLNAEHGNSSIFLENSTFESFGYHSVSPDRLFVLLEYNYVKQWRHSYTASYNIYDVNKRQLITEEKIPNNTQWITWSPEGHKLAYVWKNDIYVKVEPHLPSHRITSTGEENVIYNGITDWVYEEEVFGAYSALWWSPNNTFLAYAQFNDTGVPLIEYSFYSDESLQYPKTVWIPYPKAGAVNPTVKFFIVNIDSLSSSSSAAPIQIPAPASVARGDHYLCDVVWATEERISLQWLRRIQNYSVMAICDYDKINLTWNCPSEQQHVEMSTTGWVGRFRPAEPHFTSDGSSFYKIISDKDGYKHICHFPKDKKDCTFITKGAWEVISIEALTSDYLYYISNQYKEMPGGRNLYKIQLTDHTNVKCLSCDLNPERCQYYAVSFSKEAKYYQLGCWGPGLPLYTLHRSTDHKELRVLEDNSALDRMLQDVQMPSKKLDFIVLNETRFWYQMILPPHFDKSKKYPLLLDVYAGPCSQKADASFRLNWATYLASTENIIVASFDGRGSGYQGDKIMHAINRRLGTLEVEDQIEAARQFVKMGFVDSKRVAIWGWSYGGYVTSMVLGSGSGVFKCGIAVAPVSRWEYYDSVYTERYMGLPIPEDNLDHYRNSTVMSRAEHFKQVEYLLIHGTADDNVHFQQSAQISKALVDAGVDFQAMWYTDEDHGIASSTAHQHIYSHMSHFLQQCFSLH
row,Substance,% DPPIV Activity (Saline)
1,3 (SRIVPA; IMMUNOLOGICAL PEPTIDE) [compound 3],60%
2,4 (SRIVP; IMMUNOLOGICAL PEPTIDE) [compound 4],64%
3,6 (KIVPA; IMMUNOLOGICAL PEPTIDE) [compound 6],64%
4,8 (RVPA; IMMUNOLOGICAL PEPTIDE) [compound 8],64%
5,9 (RIPA; IMMUNOLOGICAL PEPTIDE) [compound 9],51%
6,11 (RAVPA; IMMUNOLOGICAL PEPTIDE) [compound 11],39%
7,12 (RRIVPA; IMMUNOLOGICAL PEPTIDE) [compound 12],61%
8,13 (RKVPA-NH2) [compound 13],50%
9,14 (RIVPK-NH2) [compound 14],67%
10,15 (RPVPA-NH2) [compound 15],27%
11,16 (RIPPA-NH2) [compound 16],66%
12,17 (RIVPP-NH2) [compound 17],82%
13,18 (RIVPGGA-NH2) [compound 18],65%
14,19 (GGIVPA-NH2) [compound 19],70%
15,20 (GIVPA-NH2) [compound 20],73%
16,21 (RGVPA-NH2) [compound 21],64%
17,22 (RIVPG-NH2) [compound 22],61%
18,23 (RIVPS-NH2) [compound 23],62%
19,24 (RIVPL-NH2) [compound 24],74%
20,25 (RHVPA-NH2) [compound 25],38%
21,26 (RIPVA-NH2) [compound 26],−4%
22,27 (RVIPA-NH2) [compound 27],67%

row,Substance,% DPPIV Activity (Saline)
1,28 (RIIPA-NH2) [compound 28],20%
2,29 (AVPIR-NH2) [compound 29],0%
3,30 (APVIR-NH2) [compound 30],36%
4,35 (RIVPF-NH2) [compound 35],77%
5,37 (RLVPA-NH2) [compound 37],39%
6,38 (HIVPA-NH2) [compound 38],47%
7,40 (ARVPA-NH2) [compound 40],68%
8,41 (IRVPA-NH2) [compound 41],49%
9,43 (SIVPA-NH2) [compound 43],80%
10,45 (KPARVPS; IMMUNOLOGICAL PEPTIDE) [compound 45],27%
11,46 (RVPSLL-NH2) [compound 46],70%
12,47 (KPRAVP; IMMUNOLOGICAL PEPTIDE) [compound 47],52%
13,49 (IRVP-NH2) [compound 49],56%
14,50 (RVPS-NH2) [compound 50],59%
15,51 (Arg-Val-Pro-NH2) [compound 51],70%
16,52 (PSVPGS-NH2) [compound 52],74%
17,53 (GLKHPS-NH2) [compound 53],68%
18,54 (RIVPAIPVSLL-NH2) [compound 54],4%
19,61 (RIVPAC-NH2) [compound 61],52%
20,62 ([code r][code r]VP-NH2) [compound 62],51%
21,64 (RIVPPA-NH2) [compound 64],74%
22,65 (RIGPA-NH2) [compound 65],77%

row,Substance,% DPPIV Activity (Saline)
1,70 (RIHPA-NH2) [compound 70],37%
2,71 (RIWPA-NH2) [compound 71],78%
3,72 (RIVPW-NH2) [compound 72],71%
4,73 (SPVIRH-NH2) [compound 73],66%
5,74 (CPVIRH-NH2) [compound 74],45%
6,75 (RIEPA; IMMUNOLOGICAL PEPTIDE) [compound 75],79%
7,76 (RIVPE-NH2) [compound 76],69%
8,77 (RIVPH-NH2) [compound 77],53%
9,78 (RSVPA-NH2) [compound 78],75%
10,80 (KVIPS-NH2) [compound 80],30%
11,81 (KVVPS-NH2) [compound 81],57%
12,82 (KPRP-NH2) [compound 82],52%
13,83 (Arg-Ile-Pro-NH2) [compound 83],47%
14,84 ([Orn]-Val-Pro-NH2; N-terminus assumed; SMILES CC(C)[C@H](NC(=O)[C@@H](N)CCCN)C(=O)N1CCC[C@H]1C(N)=O) [compound 84],79%
15,85 (Ser-Val-Pro-NH2) [compound 85],71%
16,86 (Lys-Val-Pro-NH2) [compound 86],49%
17,87 (Arg-Arg-Pro-NH2) [compound 87],72%
18,88 (Gly-Val-Pro-NH2) [compound 88],69%
19,89 (Lys-His-Pro-NH2) [compound 89],72%
20,90 (RIVPA[dY]-NH2) [compound 90],59%
